B1: 2M8U (parent)
chain: TKAQVIEAFKVFDRDGNGYVTVDYLRKVLNELGDMMPADEIEEMIYEADPQNSGYVQYETFVGMLFL

Variants of: B1
Assay: folding stability dG (cDNA display proteolysis); higher = more stable
Conditions: PBS, room temperature

Variant | folding stability dG [kcal/mol]
Y55L | 3.35
Y55A | 2.82
Y55D | 2.22
Y55I | 3.37
G54K | 2.47
G54Y | 2.93
G54W | 2.82
G54I | 2.76
G54R | 2.56
G54Q | 2.29
S53C | 3.18
S53R | 3.35
S53F | 3.16
S53H | 3.11
S53W | 3.22
S53L | 3.2
D13G | 1.79
D13R | 1.21
D13C | 3.16
D13A | 1.97
D13K | 1.39
D13P | 1.49
D13E | 2.11
D13M | 2.39

Variant | folding stability dG [kcal/mol]
P37E | 3.34
P37T | 3.32
P37F | 3.57
P37D | 3.26
P37H | 3.46
P37R | 3.45
P37G | 3.36
P37A | 3.1
P37M | 3.3
R26E | 2.14
R26D | 1.78
R26C | 2.88
R26Y | 3.53
R26H | 3.19
R26M | 3.44
R26Q | 2.72
D39R | 3.75
D39F | 4.09
D39H | 3.71
L29G | 1.58
L29N | 1.86
L29Y | 2.22
L29W | 2.91
L29R | 1.52

Variant | folding stability dG [kcal/mol]
L29H | 1.67
L29K | 1.33
Y24S | 4.27
Y24Q | 4.33
Y24F | 3.51
Y24W | 3.24
F61N | 1.32
F61G | 0.903
F61L | 2.65
F61A | 2.41
F61H | 1.1
F61D | 0.727
F61E | 0.86
F61K | 1.35
K2D | 2.24
K2L | 3.3
V22F | 2.52
V22W | 3.11
V22I | 3.48
V22E | 2.47
V22N | 2.76
Q4T | 3.04
Q4R | 3.34
Q4D | 3.28

Variant | folding stability dG [kcal/mol]
Q4W | 3.08
Q4H | 3.12
Q4V | 3.02
Q4N | 3.09
A48E | 2.78
A48H | 3.68
A48W | 3.34
A48Y | 3.48
A48T | 3.33
A48P | 2.25
F12K | 2.54
F12W | 3.32
F12S | 2.68
F12I | 3.04
F12C | 3.15
E42L | 3.16
E42P | 2.64
E42Y | 2.97
E42D | 3.37
E42M | 3.3
N17I | 3.1
N17C | 2.99
N17V | 3.27
N17A | 3.12

Variant | folding stability dG [kcal/mol]
A8C | 3.46
A8L | 3.56
A8D | 2.49
A8V | 2.84
A8S | 3.11
A8W | 3.56
A8K | 3.62
E31R | 3.51
E31S | 3.64
E31I | 3.66
E31G | 3.4
E31C | 3.41
L67G | 3.49
L67V | 3.28
L67S | 3.6
L67H | 3.62
N52F | 3.52
N52G | 3.51
N52L | 3.36
N52T | 3.32
V28G | 2.32
V28W | 2.77
V28S | 2.18
V28M | 2.65

Variant | folding stability dG [kcal/mol]
N30M | 3.63
N30I | 3.36
N30T | 3.44
N30Q | 3.4
N30S | 3.63
E47I | 3.92
E47V | 3.85
E47N | 3.52
E47T | 3.73
E47S | 3.71
E43M | 3.82
E43A | 3.81
E43W | 3.87
E43H | 4.05
E43Q | 3.9
G63V | 3.42
G63E | 4.11
G63C | 3.58
G63M | 3.79
G63P | 2.16
I6T | 2.72
I6D | 2.38
I6K | 2.38
I6N | 2.55

Variant | folding stability dG [kcal/mol]
I6F | 2.6
D23C | 3.67
D23P | 3.44
D23A | 3.58
Q57K | 3.2
Q57L | 3.08
Q57M | 3.27
Q57H | 3.85
Q57G | 2.69
V11N | 3.51
V11H | 3.32
V11I | 3.38
V11P | 3.14
M44T | 2.97
M44Y | 3.21
M44R | 3.66
M44N | 2.88
M44G | 2.53
L65N | 2.26
L65P | 1.55
L65D | 1.97
L65I | 3.11
L65F | 3.28
K27Q | 3.53

Variant | folding stability dG [kcal/mol]
K27N | 3.12
K27G | 2.92
K27E | 3.28
K27I | 3.66
Y46W | 3.56
Y46S | 3.52
Y46N | 3.57
D34E | 3.77
D34V | 4.2
D34L | 4.44
L25F | 2.91
L25A | 3.2
L25M | 2.69
L25N | 1.47
L25I | 3.14
L25D | 1.27
L25K | 2.23
L25C | 2.88
L32V | 3.26
L32I | 3.52
L32P | 1.83
L32E | 2.04
V62K | 1.97
V62Y | 2.11

Variant | folding stability dG [kcal/mol]
V62W | 2.11
V62A | 3.15
A3N | 3.25
A3R | 3.23
A3I | 3.27
A3P | 2.67
A3M | 3.24
A3G | 2.93
G16I | 2.21
G16V | 2.42
G16L | 2.97
G16F | 2.75
R14Q | 3.49
R14W | 3.32
R14G | 3.35
R14T | 3.81
T1W | 3.1
T1S | 3.34
K10F | 3.21
K10P | 2.08
K10N | 2.74
K10H | 2.88
K10G | 2.97
K10E | 3.02

Variant | folding stability dG [kcal/mol]
M36G | 3.48
M36T | 3.65
M36L | 3.72
M36S | 3.41
V20W | 2.96
V20T | 3.33
V20Q | 2.15
V20P | 2.1
V20Y | 1.85
V20H | 1.98
F9R | 1.98
F9H | 2.14
F9S | 2.13
F9L | 4.1
F9Q | 2.08
P50A | 3.3
P50I | 3.23
P50E | 2.89
P50R | 3.38
G33I | 4.07
G33Y | 3.48
G33L | 3.89
G33Q | 3.37
I41F | 3.5

Variant | folding stability dG [kcal/mol]
I41T | 2.72
I41N | 2.17
I41K | 2.59
I41C | 2.87
I41E | 2.29
I41H | 2.52
D49A | 2.62
D49K | 2.14
D49L | 2.43
D49C | 2.7
T60Q | 3.55
T60S | 3.6
T60W | 3.58
T60I | 3.58
E40N | 4.09
E40L | 3.89
E40R | 3.96
E40H | 4.01
E40T | 3.78
E40I | 3.91
E40W | 3.75
E40C | 3.85
E40M | 3.66
E40G | 4.01

Variant | folding stability dG [kcal/mol]
E40F | 3.99
T21P | 3.46
T21R | 3.74
M64A | 3.21
M64V | 3.03
M64I | 3.15
M64C | 3.37
M64T | 3.29
I45L | 3.19
I45S | 2.16
I45N | 2.17
I45P | 1.88
E7N | 3.17
E7R | 2.85
E7D | 3.41
E7S | 2.76
E7P | 1.91
E7H | 2.93
Y58W | 3.45
Y58G | 1.62
Y58M | 2.46
Y58R | 1.77
Y58N | 1.27
V5Y | 4.08

Variant | folding stability dG [kcal/mol]
V5I | 3.81
V5K | 1.82
V5Q | 2.09
V5H | 2.36
V5G | 1.89
M35G | 2.95
M35P | 3.12
D15A | 3.13
D15I | 3.02
D15Y | 2.96
D15P | 2.51
D15T | 2.97
D15N | 2.97
G18P | 2.71
G18S | 2.42
G18Q | 2.3
G18C | 2.87
Q51N | 3.46
Q51D | 3.56
Q51T | 3.56
Q51E | 3.48
Q51W | 3.49
A38L | 3.59
A38T | 3.6

Variant | folding stability dG [kcal/mol]
A38E | 3.43
A38S | 3.56
A38I | 3.69
F66L | 2.59
F66T | 2.83
F66W | 3.19
F66Q | 2.55
F66K | 2.73
F66R | 2.78
Y19N | 2.75
Y19I | 3.21
Y19R | 2.76
Y19D | 2.21
V56D | 2.39
V56P | 1.86
V56S | 2.17
V56L | 3.07
E59A | 3.15
E59F | 3.54
E59S | 3.05
E59Q | 3.11
E59W | 3.37

From the MegaScale stability set (Tsuboyama et al. 2023)
